MFI data for three substances are collected here from patent publication US20240092942A1.

Assay [1] addresses huFcγRIIb on CHO^huFcγRIIb cells. Kind of assay: flow cytometry on CHO^huFcγRIIb cells, anti-huCD32 mAb + PE-GAM F(ab')2; histogram peak at about 1.5e3; parental CHO cells: 86 printed. (In general: In flow cytometry, cells or beads pass a laser one at a time.)
Assay [2] has as its target huEGFR on the cell surface (3T3^huEGFR, wild-type HEK293 (EGFR+), A431 cells) (human) (UniProt P00533). Kind of assay: flow cytometry on 3T3^huEGFR cells, PE-conjugated anti-huEGFR mAb; histogram peak at about 2e3; parental 3T3 cells: 176 printed.
Assay [3] has the same target. Kind of assay: flow cytometry on MDA-MB-231 cells, PE-conjugated anti-huEGFR mAb; first number of the panel, given to the first cell line of the key (broad, most shifted histogram) [cont.) g, upper panel].
The target is the same in assay [4]. As to the kind of experiment: flow cytometry on 3T3^huEGFR cells, PE-conjugated anti-huEGFR mAb; second number of the panel, given to the second cell line of the key (narrow histogram) [cont.) g, upper panel].
Assay [5] concerns the target PD-L1 on MDA-MB-231 cells (Homo sapiens) (UniProt Q9NZQ7). Kind of assay: flow cytometry on MDA-MB-231 cells, APC-conjugated anti-huPD-L1 mAb; histogram peak at about 3e3 against control at about 2.5e2; 3T3^huEGFR cells (PD-L1 negative): 0 printed [cont.) g, lower panel].

Chain of PD-L1 on MDA-MB-231 cells (Homo sapiens) (Q9NZQ7 19-290 limits assumed): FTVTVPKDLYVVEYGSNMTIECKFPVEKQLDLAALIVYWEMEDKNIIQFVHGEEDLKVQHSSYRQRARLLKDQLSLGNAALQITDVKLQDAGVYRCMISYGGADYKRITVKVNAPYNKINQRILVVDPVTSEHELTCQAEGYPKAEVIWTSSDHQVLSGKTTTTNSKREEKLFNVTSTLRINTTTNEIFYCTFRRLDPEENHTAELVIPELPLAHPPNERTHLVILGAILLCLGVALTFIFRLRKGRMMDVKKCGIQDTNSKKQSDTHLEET

Regarding “anti-huCD32 mAb (clone FUN-2); the sheet prints only the axis label huFcγRIIb (antibody)”, in assay [1], the MFI was 1040.

Turning to “anti-huEGFR PE-conjugated mAb (clone EGFR.1); the sheet prints only the axis label huEGFR (antibody)”, the MFI in assay [2] was determined as 1730; in assay [3], 5820; in assay [4] it was 1820.

In assay [5], “anti-huPD-L1 APC-conjugated mAb (clone MIH1); the sheet prints only the axis label PD-L1 (antibody)” gave an MFI of 3260.
